Data as given in patent US20080089862.

Tested on: engineered beta-galactosidase reporter protein with the NS3-cleavable NS5A/B site between residues 2

Substance | β-galactosidase units (ONPG hydrolysis, Miller units), pEB13-lacZ-NS5A/B + pMALc-NN-scNS3 [Miller units] | β-galactosidase units (ONPG hydrolysis, Miller units), pMGT14 [Miller units] | β-galactosidase units (ONPG hydrolysis, Miller units), pMGT15 [Miller units]
MBP-scNS3 (E. coli maltose binding protein fused to the NS4A peptide followed by the NS3 protease domain) | 20 | 60 | –
MBP-scNS3mut (inactive mutant S-1165-A NS3) | – | – | 160
